One molecule from patent US20210206861A1 can be followed below.

Assay [1] addresses IL-4R-ECD-FLAG (human) (UniProt P24394). In words: ELISA on coated IL-4R-ECD-FLAG (100 ng/ml), HRP goat anti-human secondary. In general terms: ELISA stands for enzyme-linked immunosorbent assay.
Assay [2] has the same target. In words: SPR, Biacore T200; antibody captured on Protein A/G CM5 chip, IL-4R-ECD-FLAG injected.
Assay [3] addresses Biotinated IL-4R-ECD-hFc (human) (UniProt P24394). Put plainly: blocking ELISA: coated IL-4-hFc (2000 ng/ml), biotinylated IL-4R-ECD-hFc (100 ng/ml) with antibody in dilution series, Streptavidin-HRP.

As usually defined, the EC50 is the concentration that produces a half-maximal response. Low readings indicate higher potency in that assay, high ones lower potency in that assay. A word on the Kd: it is the free concentration of one partner at which half of the binding sites on the other are occupied at equilibrium, for simple one-to-one binding. Usually koff stands for the first-order rate constant of dissociation. Read a high koff as fast dissociation. What is called kon is a measure of how fast the partners come together. Usually IC50 stands for the midpoint of a concentration-inhibition curve. A higher IC50 goes with weaker potency.

B1: Dupilumab (antibody, INN chains, looked up, V domains shown)
VH: EVQLVESGGGLEQPGGSLRLSCAGSGFTFRDYAMTWVRQAPGKGLEWVSSISGSGGNTYYADSVKGRFTISRDNSKNTLYLQMNSLRAEDTAVYYCAKDRLSITIRPRYYGLDVWGQGTTVTVSS
VL: DIVMTQSPLSLPVTPGEPASISCRSSQSLLYSIGYNYLDWYLQKSGQSPQLLIYLGSNRASGVPDRFSGSGSGTDFTLKISRVEAEDVGFYYCMQALQTPYTFGQGTKLEIKR
As for B1, the EC50 with IL-4R-ECD-FLAG (human) [1] stood at 0.0125 µg/mL. Also, in the assay with IL-4R-ECD-FLAG (human) [2], the Kd turned out to be 0.671 nM, the koff came to 3.95e-05 s⁻¹ and the kon amounted to 58800 M⁻¹ s⁻¹. For the same molecule, the IC50 in assay [3] was 0.138 µg/mL.
